Experiment [1] has as its target Human Broccoli Ndc80-GFP complex (human) (UniProt O14777).
For experiment [2] the target is unchanged. As to the kind of experiment: fluorescence microscopy of microtubules on protein-coated beads (dynamic MT end-coupling assay); beads coated with Ndc80-GFP only (no CENP-E) via anti-GFP antibody; GMPCPP-stabilized MT seeds, then unlabeled soluble tubulin (6 µM) with 1 mM Mg-GTP; 32 °C.
Experiment [3] concerns the target Xenopus laevis CENP-E-GFP construct (1–473 aa), truncated CENP-E motor (Xenopus laevis). Kind of experiment: fluorescence microscopy of microtubules on protein-coated beads (MT wall-to-end transition assay); GFP-tagged protein held on coverslip-immobilized 0.9 µm streptavidin beads via biotinylated anti-GFP antibody, one protein per bead; HiLyte647-labeled GMPCPP-stabilized MTs in solution; MTs added with 0.1 mM AMP-PNP, then imaging buffer with ATP; BRB80-based buffer; 32 °C; epifluorescence.

UniProt O14777, sequence (O14777 whole entry, looked up, one chain of several): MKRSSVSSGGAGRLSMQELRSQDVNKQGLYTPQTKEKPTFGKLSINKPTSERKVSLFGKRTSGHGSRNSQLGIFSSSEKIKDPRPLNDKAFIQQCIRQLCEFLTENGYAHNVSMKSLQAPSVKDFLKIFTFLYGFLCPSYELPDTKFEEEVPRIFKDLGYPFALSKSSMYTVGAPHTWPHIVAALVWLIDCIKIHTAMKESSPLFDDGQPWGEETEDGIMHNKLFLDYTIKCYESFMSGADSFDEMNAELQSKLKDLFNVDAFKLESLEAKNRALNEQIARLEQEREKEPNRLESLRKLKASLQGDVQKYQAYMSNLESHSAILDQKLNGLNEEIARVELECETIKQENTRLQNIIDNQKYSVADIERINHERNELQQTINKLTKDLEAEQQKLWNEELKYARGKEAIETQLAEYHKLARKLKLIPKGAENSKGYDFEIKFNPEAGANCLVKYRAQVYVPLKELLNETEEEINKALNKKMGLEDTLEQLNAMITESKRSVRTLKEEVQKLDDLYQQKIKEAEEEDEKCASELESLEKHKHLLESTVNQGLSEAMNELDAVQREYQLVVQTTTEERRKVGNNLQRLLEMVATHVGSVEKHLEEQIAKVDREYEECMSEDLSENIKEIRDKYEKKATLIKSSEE

On to “Microtubules polymerised from bovine brain tubulin (from UniProt Q6B856 1-445) (complex)”, for which, in experiment [1], the Kaplan–Meier survival of MT end-attachments on beads coated with CENP-E motor and Ndc80 Broccoli was greater than 28 min; the MT end-retention time on beads coated with CENP-E motor and Ndc80 Broccoli (wall-to-end transition assay) was 18.1 min; the percent of MT plus-ends retained on beads coated with CENP-E motor and Ndc80 Broccoli (wall-to-end transition assay) came out at 80%. In experiment [2], this substance displayed a percent of MT segments attached via their ends of 3%. Besides, in experiment [3], the MT end-retention time was determined as 1.1 min and the percent of MT plus-ends retained at the bead is 24%.
